Publication doi:10.1101/525485 (bioRxiv, 2019)
Residue numbers refer to the chain shown, from its start. Numbers in names are those of the source.

What was measured:
native gel or EMSA = target: the molecule itself; test: native gel or EMSA
cross-linking = target: the molecule itself; test: cross-linking
human PCNA, purified = human PCNA, purified (human, UniProt P12004 1-261); test: ITC
ITC = target: the molecule itself; test: ITC

Chain of human PCNA, purified (P12004 whole entry): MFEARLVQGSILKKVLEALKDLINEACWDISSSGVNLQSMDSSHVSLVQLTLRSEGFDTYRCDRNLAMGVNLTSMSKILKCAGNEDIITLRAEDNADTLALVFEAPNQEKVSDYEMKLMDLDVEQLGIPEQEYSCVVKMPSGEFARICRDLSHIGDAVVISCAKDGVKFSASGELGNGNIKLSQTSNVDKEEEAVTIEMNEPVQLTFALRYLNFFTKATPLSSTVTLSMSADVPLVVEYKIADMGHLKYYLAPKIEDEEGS

B1: Cdm1, fourth subunit of S. pombe DNA polymerase delta, purified (natural protein)
chain: MKKRTTQAKKSGQNTNIRDVFPHVVRSNSSQSHIGKKVSSEQSPTPDVTITTKTLDERIKEDDELSKEVEEAWNQIMAERISEPIHCENITKVEFILHHFDTTARYGPYLGMTRMQRWKRAKNFNLNPPETVGKILMLEEADEENRKRESLFYDLQTIPG
Question: Does B1 bind (native gel or EMSA)?
Answer: Result: binds

B2: p12 subunit of human DNA polymerase delta, purified, GST tag cleaved off (natural protein)
chain: MGRKRLITDSYPVVKRREGPAGHSKGELAPELGEEPQPRDEEEAELELLRQFDLAWQYGPCTGITRLQRWCRAKQMGLEPPPEVWQVLKTHPGDPRFQCSLWHLYPL
Question: B2 was tested. Which “stoichiometry N” value (cross-linking) did it give?
Answer: The value was 2.

Question: And the Kd (human PCNA, purified)?
Answer: Its Kd is 10 µM.

Question: And the Kd (ITC)?
Answer: The Kd was roughly 0.146 µM.

Question: What about the dH (ITC) of the same binder?
Answer: Its dH is roughly -7.61 kJ/mol.

Question: And the “stoichiometry N” value (ITC)?
Answer: Its value is roughly 0.6.

B3: p12 L104A, Y105A mutant, purified (natural protein)
chain: B2 chain with L104A, Y105A
Question: How did the “stoichiometry N” value (cross-linking) turn out when B3 was run?
Answer: Its value is 2.
